Test results from paper PMC9352930.

Experiments:
[1] = biological target: EWEnH fusion protein (EWE fused to FH CCP2-4) (human); experiment: BLI; kinetics: EWE, EWEµH or EWEnH held on anti-penta his (His1K) biosensors, dilution series of C3b or iC3b; 20 mM HEPES pH 7.5, 150 mM NaCl, 30°C; 1:1 model
[2] = biological target: EWEµH fusion protein (EWE fused to FH CCP2-4 and CCP19-20) (human); experiment: as above

Kd [1] | Kd [2] | Substance
7.1 nM | 2.9 nM | iC3b (domain or fragment)
8.9 nM | 0.4 nM | C3b (proteolytic fragment of complement component C3) (from UniProt P01024 749-1663; P01024 749-1663) (domain or fragment)
